Results on one molecule are retold here after patent US20250222032A1 (published 2025).

Assay [1] deals with dextramers composed of HLA-A*11:01 complexes loaded with the RAS-WT peptide (human). Nature of the assay: dual dextramer labeling of TCR T3 transduced T cells, flow cytometry. On the technique in general: A flow cytometer gives signals particle by particle.
Assay [2] addresses T1, RAS wild type (KRAS, also HRAS and NRAS) peptide on HLA-A*11:01 (human).
T1 peptide: VVVGAGGVGK
Nature of the assay: multimer staining.

The target of assay [3] is T2, RAS G12C peptide on HLA-A*11:01 (human).
T2 peptide: VVVGACGVGK
Nature of the assay: cytokine release.

Assay [4] has as its target T3, RAS G12D (KRAS, also HRAS and NRAS) peptide on HLA-A*11:01 (human).
T3 peptide: VVVGADGVGK
Nature of the assay: cytokine release.

For assay [5], the target named is T4, RAS G12D (KRAS, also HRAS and NRAS) peptide on HLA-A*11:01 (human).
T4 peptide: VVGADGVGK
Nature of the assay: cytokine release.

B1: TCR T3 (TCR, V domains shown)
Valpha: GQQLNQSPQSMFIQEGEDVSMNCTSSSIFNTWLWYKQDPGEGPVLLIALYKAGELTSNGRLTAQFGITRKDSFLNISASIPSDVGIYFCAGRREGAQKLVFGQGTRLTINP
Vbeta: GAGVSQSPRYKVAKRGQDVALRCDPISGHVSLFWYQQALGQGPEFLTYFQNEAQLDKSGLPSDRFFAERPEGSVSTLKIQRTQQEDSAVYLCASSSTLMGVNIQYFGAGTRLSVL
In turn, B1 registered a fraction of the T cells that bound the dextramers in assay [1] of 60%. For the same molecule, the binding result in assay [2], in assay [3], in assay [4] and in assay [5] was “recognises” throughout.
